Measurements as given in patent publication US20220112276A1 (Janssen / Centocor, published 2022).

T1: mouse pIgR extracellular domain (ECD) (mouse, UniProt O70570 19-645)
T1 construct: Bought from R&D Systems (Cat 2800-PG-050); also called mpIgR ECD
T1 sequence: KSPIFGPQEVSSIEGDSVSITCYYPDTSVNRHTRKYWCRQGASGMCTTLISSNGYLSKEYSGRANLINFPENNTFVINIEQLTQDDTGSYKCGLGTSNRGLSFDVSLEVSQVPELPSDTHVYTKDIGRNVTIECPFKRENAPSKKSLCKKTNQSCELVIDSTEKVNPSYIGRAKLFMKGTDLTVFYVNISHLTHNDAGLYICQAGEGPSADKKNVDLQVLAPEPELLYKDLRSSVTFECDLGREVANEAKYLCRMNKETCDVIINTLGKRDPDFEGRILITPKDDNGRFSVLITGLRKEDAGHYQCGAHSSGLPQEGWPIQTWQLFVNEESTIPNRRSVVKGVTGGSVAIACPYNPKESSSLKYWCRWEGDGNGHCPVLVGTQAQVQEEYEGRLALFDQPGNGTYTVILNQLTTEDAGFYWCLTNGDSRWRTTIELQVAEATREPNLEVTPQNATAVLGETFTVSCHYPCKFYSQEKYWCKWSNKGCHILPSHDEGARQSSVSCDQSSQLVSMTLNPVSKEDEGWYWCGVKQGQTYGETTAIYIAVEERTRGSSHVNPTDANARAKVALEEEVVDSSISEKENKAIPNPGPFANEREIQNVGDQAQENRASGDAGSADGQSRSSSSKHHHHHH

T2: rat pIgR extracellular domain (rat, UniProt P15083 19-643)
T2 construct: extracellular domain
T2 sequence (looked up): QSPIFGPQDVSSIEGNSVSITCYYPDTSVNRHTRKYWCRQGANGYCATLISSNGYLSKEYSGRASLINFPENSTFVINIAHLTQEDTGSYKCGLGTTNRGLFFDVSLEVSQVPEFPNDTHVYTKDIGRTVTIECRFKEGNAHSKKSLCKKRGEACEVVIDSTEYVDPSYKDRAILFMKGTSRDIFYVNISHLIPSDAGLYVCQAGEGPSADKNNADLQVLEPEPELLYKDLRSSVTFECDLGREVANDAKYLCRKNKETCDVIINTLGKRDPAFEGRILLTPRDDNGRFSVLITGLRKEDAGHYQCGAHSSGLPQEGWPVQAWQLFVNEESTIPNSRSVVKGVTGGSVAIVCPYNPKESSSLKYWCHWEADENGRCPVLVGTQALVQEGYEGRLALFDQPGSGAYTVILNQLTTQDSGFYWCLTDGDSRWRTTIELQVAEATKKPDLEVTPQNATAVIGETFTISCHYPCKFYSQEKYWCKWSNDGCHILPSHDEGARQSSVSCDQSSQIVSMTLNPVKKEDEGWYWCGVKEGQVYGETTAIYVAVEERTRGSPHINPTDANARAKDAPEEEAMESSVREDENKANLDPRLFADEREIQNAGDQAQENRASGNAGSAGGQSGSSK


Tests used:
Experiment in all cases: SPR, VHH captured by anti-Fc, ECD analyte
[1] = target: T1, mouse pIgR extracellular domain (ECD)
In short: (§1)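 Anti-human Fc surface captured VHH at 0.5 ug/ml (~200-300 RU); running buffer HBSP with 100 ug/ml BSA, 30 μL/min. Single-cycle kinetics with ECD injected low to high from 30 nM in 3-fold dilutions, dissociation 30 min. Double-referenced data globally fit to 1:1 Langmuir model for kon, koff, KD.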

[2] = target: T3, human pIgR extracellular domain (ECD) (human, UniProt P01833 19-638)
T3 construct: Bought from R&D Systems (Cat 2717-PG-050); also called hpIgR ECD
T3 sequence (P01833 other isoform, or with tags, fused parts or gaps): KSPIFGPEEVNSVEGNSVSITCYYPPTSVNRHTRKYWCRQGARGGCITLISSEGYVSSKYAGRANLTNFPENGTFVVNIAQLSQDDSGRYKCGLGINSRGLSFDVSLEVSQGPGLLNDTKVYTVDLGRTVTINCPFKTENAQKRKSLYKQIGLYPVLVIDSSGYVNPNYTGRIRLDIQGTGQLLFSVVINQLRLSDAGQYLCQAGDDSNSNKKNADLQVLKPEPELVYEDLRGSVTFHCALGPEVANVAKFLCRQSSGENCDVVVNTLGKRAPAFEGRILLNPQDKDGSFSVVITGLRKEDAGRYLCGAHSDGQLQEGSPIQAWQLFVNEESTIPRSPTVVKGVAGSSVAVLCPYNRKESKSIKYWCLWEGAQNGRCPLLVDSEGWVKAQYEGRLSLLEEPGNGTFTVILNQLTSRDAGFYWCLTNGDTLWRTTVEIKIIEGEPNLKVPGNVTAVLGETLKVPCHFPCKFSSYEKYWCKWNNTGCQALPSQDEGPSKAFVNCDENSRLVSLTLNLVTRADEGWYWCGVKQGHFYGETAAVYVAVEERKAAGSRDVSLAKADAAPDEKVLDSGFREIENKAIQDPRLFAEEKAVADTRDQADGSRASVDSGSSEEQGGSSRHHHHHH
In short: as §1

[3] = target: T4, cynomolgus monkey pIgR extracellular domain (cynomolgus monkey, UniProt A0A2K5WMU9 19-638)
T4 construct: extracellular domain
T4 sequence (A0A2K5WMU9 entry or part of it): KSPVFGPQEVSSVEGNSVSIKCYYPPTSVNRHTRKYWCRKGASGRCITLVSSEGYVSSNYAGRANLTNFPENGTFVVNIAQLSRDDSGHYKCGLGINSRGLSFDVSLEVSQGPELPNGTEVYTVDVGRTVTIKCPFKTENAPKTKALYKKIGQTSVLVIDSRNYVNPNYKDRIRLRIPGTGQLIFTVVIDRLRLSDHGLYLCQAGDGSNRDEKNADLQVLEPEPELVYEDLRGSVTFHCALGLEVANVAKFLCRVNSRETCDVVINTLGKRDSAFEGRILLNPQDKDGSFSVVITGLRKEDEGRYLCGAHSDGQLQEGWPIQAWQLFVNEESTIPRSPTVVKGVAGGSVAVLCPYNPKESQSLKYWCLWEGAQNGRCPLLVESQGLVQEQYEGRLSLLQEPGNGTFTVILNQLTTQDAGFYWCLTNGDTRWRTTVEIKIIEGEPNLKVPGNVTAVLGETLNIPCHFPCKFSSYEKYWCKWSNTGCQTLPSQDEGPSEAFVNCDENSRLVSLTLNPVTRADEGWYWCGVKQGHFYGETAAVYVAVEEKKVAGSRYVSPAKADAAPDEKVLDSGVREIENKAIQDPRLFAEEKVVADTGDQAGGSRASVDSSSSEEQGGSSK
In short: as §1

[4] = target: T2, rat pIgR extracellular domain
In short: as §1

Row | Binder | Kd [1] [nM] | Kd [2] [nM] | Kd [3] [nM] | Kd [4] [nM]
1 | 01E02R3LS VHH Mono-Fc (Fc fusion) EVQLVESGGGLVETGGSLRLSCAASGRTESTYTMAWFRQAPGKERERVATISFSGSTTTYLASVQGRFTISRDGAKNTIFLQMNGLKPEDTAVYYCALDTRRRVGSSPRFYDYWGQGTLVTVSSSPAPELLGGPSVFLFPPKPKDTLMISRTPEVTCVVVDVSHEDPEVKFNWYVDGVEVHNAKTKPREEQYNSTYRVVSVLTVLHQDWLNGKEYKCKVSNKALPAPIEKTISKAKGQPREPQVYTKPPSREEMTKNQVSLSCLVKGFYPSDIAVEWESNGQPENNYKTTVPVLDSDGSFRLASYLTVDKSRWQQGNVFSCSVMHEALHNHYTQKSLSLSPGK |  | 0.6 | 0.018 | 
2 | 03D12R3 VHH Mono-Fc (Fc fusion) QVQLVESGGGLVQAGGSLRLSCAASGRTFSSYAMGWFRQAPGKEREFAAVITWNGGSTHYADSVKGRFTISRDNAKNTVYLQMNSLKPEDTAVYYCAADPMNSPYWGQGTQVTVSSSPAPELLGGPSVFLFPPKPKDTLMISRTPEVTCVVVDVSHEDPEVKFNWYVDGVEVHNAKTKPREEQYNSTYRVVSVLTVLHQDWLNGKEYKCKVSNKALPAPIEKTISKAKGQPREPQVYTKPPSREEMTKNQVSLSCLVKGFYPSDIAVEWESNGQPENNYKTTVPVLDSDGSFRLASYLTVDKSRWQQGNVFSCSVMHEALHNHYTQKSLSLSPGK |  | 0.606 | 0.905 | 
3 | 02G06R3 VHH Mono-Fc (Fc fusion) EVQLVESGGGLVQAGGSLRLSCAASGRTFDSYAMGWFRQAPGKEREFVAAISWTGGSTDYADSVKGRFTISRDNAKNTVYLQMDSLKPEDTAVYYCAAEVVGRDVTTMYRVSGLEYEYDYWGQGTQVTVSSSPAPELLGGPSVFLFPPKPKDTLMISRTPEVTCVVVDVSHEDPEVKFNWYVDGVEVHNAKTKPREEQYNSTYRVVSVLTVLHQDWLNGKEYKCKVSNKALPAPIEKTISKAKGQPREPQVYTKPPSREEMTKNQVSLSCLVKGFYPSDIAVEWESNGQPENNYKTTVPVLDSDGSFRLASYLTVDKSRWQQGNVFSCSVMHEALHNHYTQKSLSLSPGK | 32.3 |  |  | 73.5
4 | 01H04R3 VHH Mono-Fc (Fc fusion) EVQLVESGGGLVQPGGSLRLSCAASGRTFSSLTMAWFRRAPGKEREFVAAQKWAGATTYTYYGDSVKGRFTISRDNAKDTVYLQMNSLKPVDTAIYYCAADTSSIVGDPRSPNRYDYWGQGTQVTVSSSPAPELLGGPSVFLFPPKPKDTLMISRTPEVTCVVVDVSHEDPEVKFNWYVDGVEVHNAKTKPREEQYNSTYRVVSVLTVLHQDWLNGKEYKCKVSNKALPAPIEKTISKAKGQPREPQVYTKPPSREEMTKNQVSLSCLVKGFYPSDIAVEWESNGQPENNYKTTVPVLDSDGSFRLASYLTVDKSRWQQGNVFSCSVMHEALHNHYTQKSLSLSPGK | 101 |  |  | 88.2
5 | 01C01R2LS VHH Mono-Fc (Fc fusion) QVQLVESGGGLQQAGGSLRLSCAASGRTVTVMTVGWFRQAPGKEREFVAAITMYGERTYYADSVKGRFTISRDNAKNTVDLQMNSLKPEDAAVYYCAARTYVSGIYDRFDDYNYWGQGTQVTVSSSPAPELLGGPSVFLFPPKPKDTLMISRTPEVTCVVVDVSHEDPEVKFNWYVDGVEVHNAKTKPREEQYNSTYRVVSVLTVLHQDWLNGKEYKCKVSNKALPAPIEKTISKAKGQPREPQVYTKPPSREEMTKNQVSLSCLVKGFYPSDIAVEWESNGQPENNYKTTVPVLDSDGSFRLASYLTVDKSRWQQGNVFSCSVMHEALHNHYTQKSLSLSPGK | 11.3 |  |  | 
6 | 01H02R3LS VHH Mono-Fc (Fc fusion) QVQLVESGGGLVQPGGSLRLSCAASGSIFSASVMGWYRQGPGKQREFVARISPGGVTHYADSVKGRFTISKDNAKNTVTLQMNSLKPEDTAVYYCNADRFGFEVYWGQGTLVTVSSSPAPELLGGPSVFLFPPKPKDTLMISRTPEVTCVVVDVSHEDPEVKFNWYVDGVEVHNAKTKPREEQYNSTYRVVSVLTVLHQDWLNGKEYKCKVSNKALPAPIEKTISKAKGQPREPQVYTKPPSREEMTKNQVSLSCLVKGFYPSDIAVEWESNGQPENNYKTTVPVLDSDGSFRLASYLTVDKSRWQQGNVFSCSVMHEALHNHYTQKSLSLSPGK |  | 3.24 | 20.6 | 

Continued, values first:

Row | Kd [1] [nM] | Kd [2] [nM] | Kd [3] [nM] | Kd [4] [nM] | Binder
7 | 5.58 | 2.63 | 361 |  | 03G07R3 VHH Mono-Fc (Fc fusion) EVQLVESGGGLVQAGDSLRLSCAASGRTLSFDTYAMAWFRQAPGKEREFVASIDYNGGSTDYADSVKGRFTVTRDNAKNTVTLRMNSLKPDDTAVYYCASARYYRSGTSFPVNYWGQGTQVTVSSSPAPELLGGPSVFLFPPKPKDTLMISRTPEVTCVVVDVSHEDPEVKFNWYVDGVEVHNAKTKPREEQYNSTYRVVSVLTVLHQDWLNGKEYKCKVSNKALPAPIEKTISKAKGQPREPQVYTKPPSREEMTKNQVSLSCLVKGFYPSDIAVEWESNGQPENNYKTTVPVLDSDGSFRLASYLTVDKSRWQQGNVFSCSVMHEALHNHYTQKSLSLSPGK
8 |  | 23.8 | 236 |  | 01F04R3LS VHH Mono-Fc (Fc fusion) EVQLVESGGGLVQAGGSLRLSCAASGRTFSRYAMGWFRQAPGKEREFVAAIAWSGGAIYYADFVKGQFTISRDNAKNTVDLEMNRLKPEDTAVYYCGSTRDPRVGDKKFYDYWGQGTQVTVSSSPAPELLGGPSVFLFPPKPKDTLMISRTPEVTCVVVDVSHEDPEVKFNWYVDGVEVHNAKTKPREEQYNSTYRVVSVLTVLHQDWLNGKEYKCKVSNKALPAPIEKTISKAKGQPREPQVYTKPPSREEMTKNQVSLSCLVKGFYPSDIAVEWESNGQPENNYKTTVPVLDSDGSFRLASYLTVDKSRWQQGNVFSCSVMHEALHNHYTQKSLSLSPGK
9 | 4.38 |  |  | 2.37 | 02D07R3 VHH Mono-Fc (Fc fusion) EVQLVESGGGLVQPGGQLRLSCAASGSIASIRDMAWYRQAPGKQRELVAIFARGGTTHYADSVKGRFTISRDNAKNTVYLQVNSLEPEDTAAYYCNAEVATMFQPGFRDYWGRGTQVTVSSSPAPELLGGPSVFLFPPKPKDTLMISRTPEVTCVVVDVSHEDPEVKFNWYVDGVEVHNAKTKPREEQYNSTYRVVSVLTVLHQDWLNGKEYKCKVSNKALPAPIEKTISKAKGQPREPQVYTKPPSREEMTKNQVSLSCLVKGFYPSDIAVEWESNGQPENNYKTTVPVLDSDGSFRLASYLTVDKSRWQQGNVFSCSVMHEALHNHYTQKSLSLSPGK
10 | 23.3 |  |  |  | 01G02R2LS VHH Mono-Fc (Fc fusion) QVQLVESGGGLVQAGDSLALSCAGSGDTFSNYAMGWFRQAPGKEREFVADISWYGANIGYADSVKGRFTISRDNAKNMVTLRMNSLKPEDTAVYYCAADRNHWPVKGDYWGQGTQVTVSSSPAPELLGGPSVFLFPPKPKDTLMISRTPEVTCVVVDVSHEDPEVKFNWYVDGVEVHNAKTKPREEQYNSTYRVVSVLTVLHQDWLNGKEYKCKVSNKALPAPIEKTISKAKGQPREPQVYTKPPSREEMTKNQVSLSCLVKGFYPSDIAVEWESNGQPENNYKTTVPVLDSDGSFRLASYLTVDKSRWQQGNVFSCSVMHEALHNHYTQKSLSLSPGK
11 | 61.8 |  |  | 96.9 | 01E10R2 VHH Mono-Fc (Fc fusion) EVQLVESGGGLVQAGGSLRLSCAASGRTLSVDRMGWFRQVPGKEREFIAARTWSGSSTYIYYADSVKGRFAISRDRAKNTIDLQMNSLKLEDTGAYYCAADVRGGSYDVRRDEGYAYWGQGTLVTVSSSPAPELLGGPSVFLFPPKPKDTLMISRTPEVTCVVVDVSHEDPEVKFNWYVDGVEVHNAKTKPREEQYNSTYRVVSVLTVLHQDWLNGKEYKCKVSNKALPAPIEKTISKAKGQPREPQVYTKPPSREEMTKNQVSLSCLVKGFYPSDIAVEWESNGQPENNYKTTVPVLDSDGSFRLASYLTVDKSRWQQGNVFSCSVMHEALHNHYTQKSLSLSPGK
